Test results taken from PMC5827731.

How the values were obtained:
[1] = target: SURF6-N (N-terminal segment of Surfeit locus protein 6, residues 1-182) (UniProt O75683)
[2] = target: NPM1^mutB2 (Lys and Arg to Ala in the B2-tract) (UniProt P06748)

Chain of UniProt O75683 (O75683 1-182): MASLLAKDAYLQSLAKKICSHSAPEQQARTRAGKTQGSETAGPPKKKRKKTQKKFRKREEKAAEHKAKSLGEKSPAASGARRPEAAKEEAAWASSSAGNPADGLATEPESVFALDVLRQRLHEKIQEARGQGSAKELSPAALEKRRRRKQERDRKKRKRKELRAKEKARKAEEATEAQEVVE

| Substance | threshold concentration for heterotypic LLPS with SURF6-N (turbidity, Fig. 2c) [1] [µM] | threshold SURF6-N concentration for heterotypic LLPS, NPM1 construct at 20 µM (turbidity) [2] [µM] |
| --- | --- | --- |
| NPM1^N188 (NPM1 truncation that lacks the CTD plus the B2-tract) (domain or fragment) | 30 | – |
| NPM1^mutB2 (Lys and Arg to Ala in the B2-tract) (from UniProt P06748 1-294) (natural protein) | – | 60 |
